Results reported in the supplement of paper PMC9170038.

Tested on: MS2 coat protein
Experiment: apparent KD of MS2 coat protein; designed switch direction (-1 OFF switch, 1 ON switch): 1; higher = weaker reporter binding
Method in brief: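 On Illumina chips, designed RNA switches with common flanks were made by stalled E. coli RNA polymerase. Titrations with SNAP-549-labelled MS2 coat protein, doubling from 0.7 or 1.5 nM to 3 µM, were done with no input, with 200 uM small-molecule ligand, or with an oligonucleotide input. Apparent KD is the median per design over clusters, from curve fits of normalised cluster fluorescence.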

[1] = Eterna round: R95, input ligand: FMN 200 uM
[2] = Eterna round: R95, input ligand: microRNA oligo, concentration not stated
[3] = Eterna round: R95, input ligand: none
[4] = input ligand: microRNA oligo, concentration not stated

Row | Sequence | apparent KD of MS2 coat protein [1] [nM] | apparent KD of MS2 coat protein [2] [nM] | apparent KD of MS2 coat protein [3] [nM] | apparent KD of MS2 coat protein (input ligand: FMN 200 uM) [nM] | apparent KD of MS2 coat protein [4] [nM] | apparent KD of MS2 coat protein (input ligand: none) [nM]
1 | GGUCCAGCCUGAGCUGGACUAUAGUAUGUACAUGAGGAUCACCCAUGUCAUGUACAAGUAUGUUGUUUGUCUUGAAA [Sensorship 5 - Jieux - Sensor for hsa-mir-208a] (puzzle: Sensor for hsa-mir-208a) | 72.3 | 65.4 | 103 |  |  | 
2 | GCGCAGCUGAGUGAGGAUAUCGGUGGUAAAACAUGAGGAUCACCCAUGUCCGAAGCUCGGACUUCCGAGAAGGCACCCGGCUGCA [Inisusbeor] (puzzle: Same State 2) | 11.9 | 47.4 | 73.5 |  |  | 
3 | AAUUCACGAGCACAGGAUAUGCUUGCCAACACAUGAGGAUCACCCAUGUCGGGCUACUAAUAAGAGCAGAAGGGUGACUCAUGAU [Esticece] (puzzle: Same State 2) | 36.6 | 342 | 58.2 |  |  | 
4 | UGGCUCAGACGAGGAUAUGGUCAUGGCGCUUCGGCGCAUACAUGAGGAUCACCCAUGUAGGGUGAUCAGAAGGUGUCUGAGCCA [SSNG2/9-B2] (Eterna round: R96, puzzle: Same State NG 2) |  |  |  | 210 | 827 | 1100
5 | CUCCCAGCGGGAGGAUAUGGUGCCUUGUUGGUGCUAGAAGGUCCAACAUGAGGAUCACCCAUGUGGGAGUGGUUGAGAGACCUC [SS NG10LRO12] (Eterna round: R96, puzzle: Same State NG 1) |  |  |  | 218 | 166 | 278
6 | GCAGUACACGCAGAGGAUAUGUCGGUAACGACAUGAGGAUCACCCAUGUGUACGGAAGUACUCAGACAGAAGGCUGUGUACUGCU [Same State 2 - Hyphema v.3] (puzzle: Same State 2) | 19.4 | 79.1 | 96.2 |  |  | 
7 | GGUAGGUUACUACCAACACAUGAGGAUCACCCAUGUUUUCAUGAGGAUAUGGUACCUAUUUGGUACCAGAAGGCAUGGUUAAUU [Fiskers NG3ss - 18] (Eterna round: R96, puzzle: Same State NG 3) |  |  |  | 48.6 | 76.8 | 104
8 | AUAGUUAGCGAAGGAUAUGGGAAAGGAAGUGUACCAGAAGGUCGGCUACUGGGCUUACAUGAGGAUCACCCAUGUCCCGGUAGC [PowerStrip SSNG 1.13] (Eterna round: R96, puzzle: Same State NG 1) |  |  |  | 10.1 | 9.15 | 12.2
9 | CGCAUCAUUGUUACAUGAGGAUCACCCAUGUUUUCGAGUGGAGAGGAUAUCGUAACAGUAUAAAUCGAGAAGGCUCUAUAGUAU [JR_SSNG3_Sub082] (Eterna round: R96, puzzle: Same State NG 3) |  |  |  | 34.1 | 77.1 | 81.6
10 | AGCUAUUAAUCAGGAUAUAGUGACAUGAGGAUCACCCAUGUAUUGAUGAUGAAAUGUGGUCGCCGCUAGAAGGGAUUACUAACA [SameState NG2 #45] (Eterna round: R96, puzzle: Same State NG 2) |  |  |  | 75.1 | 27.7 | 34
11 | GCAGAACAUGAGGAUCACCCAUGUCUCUAAUAUCGAGGAUAUGGGCACGGUAUAUCCGAACCAGAAGGCGAACUGC [SS1 Teenbexe 15] (puzzle: Same State 1) |  | 244 |  |  |  | 
12 | UAUCCAUAGAUAGGAUAUUAGAGAACAUGAGGAUCACCCAUGUUUGGCUUGGUUUUAAGCUAAUCUGAGAAGGAUCUUGAUGAA [SameState NG2 #8] (Eterna round: R96, puzzle: Same State NG 2) |  |  |  | 85.5 | 185 | 119
13 | UUAAUGAAGUAAGGAUAUACAUGAGGAUCACUCGUAGAAGGUACUAUACAUGAGGAUCACCCAUGUGCCGGUCAGAAGACUGGA [Mat - Same State NG 1 - JL mod - D5] (Eterna round: R96, puzzle: Same State NG 1) |  |  |  | 755 | 534 | 723
14 | AUAAGUUUGAUGCUCGUCUCUCCGUACAAACAUGAGGAUCACCCAUGUGGUCGGGAAGUAGCCCGGCCGGUAUGGCC [Atusri] (puzzle: Sensor for hsa-mir-208a) | 16.7 | 14.1 | 15.8 |  |  | 
15 | UGGCUGGUGCUAGGAUAUACAUGAGGAAUCCUCGUAGAAGGAUCACGACAUGAGGAUCACCCAUGUAGCCGUCCGUAGACGGCU [salish99_SSNG1_r04_006] (Eterna round: R96, puzzle: Same State NG 1) |  |  |  | 1930 | 190 | 312
16 | AUAGUUGCCGAAGGAUAUGAUGAGGAUCACCCAUCAGAAGGUUGGCUAUUGGGUGGACAUGAGGAUCACCCAUGUUCUUUGGUA (Eterna round: R96, puzzle: Same State NG 1) |  |  |  | 64.2 | 107 | 140
17 | UUCACCUUUUUUUACAUGAGGAUCACCCAUGUUUACCCUACGUAGGAUAUCGAUGAAUGAUUGUACGAGAAGGACGUAGUAAGU [JR_SSND3_Sub057] (Eterna round: R96, puzzle: Same State NG 3) |  |  |  | 19.1 | 30.5 | 36.1
18 | UUUGGGUGGCUGGAGGAUAUUCGAGUGGUUACAUGAGGAUCACCCAUGUGUCGCGCGGUACGCGAGGAGAAGGCUGGCGGCCGUU (puzzle: Same State 2) |  | 53.4 |  |  |  | 
19 | GGAAACUUGAGAGGAUAUGUAGAGGAUCACCCUACAGAAGGCUCAUUUGAGAGGAUAUGUAGAGGAUCACCCUACAGAAGGCUC [pwkr ssNG DX.13] (Eterna round: R96, puzzle: Same State NG 1) |  |  |  | 29.6 | 26 | 72.4
20 | GGUAGGUUACUACCAAUCUACAUGAGGAUCACCCAUGUGUGGAAGGAUAUGGUACCUAUUUGGUACCAGAAGGUCCAAUUAAUU [Fiskers NG3ss - 7] (Eterna round: R96, puzzle: Same State NG 3) |  |  |  | 179 | 64.7 | 153
21 | ACGCUCCAUGGAGGAUAUGGGCCUGCCCGGGAUACCGGGCCUAACACAUGAGGAUCACCCAUGUCCCAGAAGGCCGCUGGAGCC [Atgeenbite] (Eterna round: R96, puzzle: Same State NG 2) |  |  |  | 19.2 | 62.3 | 98.7
22 | UUGAAGAAUUAAGGAUAUUGAAUACAUAUGUUUAACAUGAGGAUCACCCAUGUGGGUUGCGGUGUCGAGAAGGUAAAAUACUAG [Mat - same State NG 2 - JL mod - D97] (Eterna round: R96, puzzle: Same State NG 2) |  |  |  | 236 | 278 | 270
23 | ACAUGAGACAAAGGAUAUGGUGUACCUACAUGUGACAUGAGGAUCACCCAUGUGGUAAGUAUGACUCAGAAGGUUGAGAUAUGU [Equivalance 74 - Jieux - Same State NG 2] (Eterna round: R96, puzzle: Same State NG 2) |  |  |  | 37 | 203 | 299
